{"source": "paper PMC7293229", "key": {"SxtT": {"molecular_target": "SxtT", "experiment": "crystal structure; SxtT crystallised anaerobically, hanging drop, 2.0 M (NH4)2SO4, 0.1 M Bis-Tris pH 6.5, 10% glycerol, 20 °C; without and with 20 mM ddSTX; three molecules in the asymmetric unit"}, "GxtA": {"molecular_target": "GxtA", "experiment": "crystal structure; GxtA crystallised anaerobically, hanging drop, 0.3 M MgCl2, 0.1 M Bis-Tris pH 5.5, 25% PEG3350, 15% glycerol, 20 °C; without and with 20 mM ddSTX; three molecules in the asymmetric unit"}}, "data": [{"substance": "SxtT (enzyme)", "values": [{"measurement": "stoichiometry N", "setting": "SxtT", "result": 3}]}, {"substance": "GxtA (enzyme)", "values": [{"measurement": "stoichiometry N", "setting": "GxtA", "result": 3}]}]}
